Measurements as given in publication PMC9822992, “Conformational plasticity of NaK2K and TREK2 potassium channel selectivity filters” (Nature Communications, 2023).
Changes are numbered by the printed parent chain. In names and notes the source's numbering stands.

B1: tandem dimeric NaK Δ19 T73C (other)
chain: KDKEFQVLFVLTILTLISGTIFYSTVEGLRPIDALYFSVVTLTTVGDGNFSPQCDFGKIFTILYIFIGIGLVFGFIHKLAVNVQLPSILSNRKKEGGGSGGGSKDKEFQVLFVLTILTLISGTIFYSTVEGLRPIDALYFSVVTLTTVGDGNFSPQTDFGKIFTILYIFIGIGLVFGFIHKLAVNVQLPSILSNRKKE
modifications: Alexa Fluor 555 or Alexa Fluor 647 c2 maleimide on T73C
notes: NaK (Na+- and K+-conducting) channel from Bacillus cereus, Δ19 construct, first subunit (S1) of the tandem, carries T73C; linker between the two copies; NaK channel from Bacillus cereus, Δ19 construct, second subunit of the tandem, without cysteine; pET28a; Two tandem dimers form the tetrameric channel; whether a His8 also follows the first copy inside the tandem is not clear; also called NaK …
B2: tandem dimeric NaK2K Δ19 T73C (other)
chain: B1 chain with D47Y, N49D, D150Y, N152D
modifications: Alexa Fluor 555 or Alexa Fluor 647 c2 maleimide on T73C
notes: NaK channel from Bacillus cereus, Δ19 construct, NaK2K mutant (selectivity filter TVGDGN changed to TVGYGD), first subunit (S1) of the tandem, carries T73C; positions 63-68 are worked out from the printed Asn68; linker between the two copies; NaK channel from Bacillus cereus, Δ19 construct, NaK2K mutant (TVGDGN changed to TVGYGD), second subunit of the tandem, without cysteine; pET28a; Two tandem …
B3: monomeric NaK Δ19 T73C (with F92A) (other)
chain: KDKEFQVLFVLTILTLISGTIFYSTVEGLRPIDALYFSVVTLTTVGDGNFSPQCDFGKIFTILYIFIGIGLVAGFIHKLAVNVQLPSILSNRKKE
notes: NaK channel from Bacillus cereus, Δ19 construct, monomeric; In the cross-linking experiment T73C was reacted with bis-maleimide PEG (Bis-Mal-dPEG3, 3 nm, or Bis-Mal-dPEG11, 6 nm); also called NaK T73C; not shown: His8, C-terminal, kept
B4: monomeric NaK2K Δ19 T73C (with F92A) (other)
chain: B3 chain with D47Y, N49D
notes: NaK channel from Bacillus cereus, Δ19 construct, NaK2K mutant (TVGDGN changed to TVGYGD), monomeric; positions 63-68 are worked out from the printed Asn68; Channels 'formed as tetramers of monomeric, not tandem dimeric, constructs'; In the cross-linking experiment T73C was reacted with bis-maleimide PEG (3 nm or 6 nm); also called NaK2K T73C; not shown: His8, C-terminal, kept

Tests used:
[1] = target: cysteine-less TREK2 S105C (Gly67 to Glu340); assay: SEC; Superdex-200 10/300, 20 mM Tris, 150 mM KCl, 2 mM DDM, pH 8, 4 °C; oligomer fractions of labelled TREK2 collected
[2] = target: the molecule itself; assay: SEC; Superdex-200 10/300, 20 mM Hepes, 150 mM KCl, 5 mM DM, pH 7.5, 4 °C; tetrameric fractions pooled (again after fluorophore labelling)

Row | Molecule | binding result [2] | stoichiometry N [2] | also measured
1 | cysteine-less TREK2 S105C (Gly67 to Glu340) | – | – | stoichiometry N [1]: 2
2 | B1 | binds | – | –
3 | B2 | binds | – | –
4 | B3 | – | 4 | –
5 | B4 | – | 4 | –
